In PMC4191604 (Journal of Medicinal Chemistry, 2014):
Positions count from the first letter of the chain named.

Columns and labels:
Assay in all cases: SPR
GBP1 mutant R227A/K228A = biological target: T1, GBP1 mutant R227A/K228A (human, UniProt P32455 1-592, R227A | K228A)
T1 sequence (looked up): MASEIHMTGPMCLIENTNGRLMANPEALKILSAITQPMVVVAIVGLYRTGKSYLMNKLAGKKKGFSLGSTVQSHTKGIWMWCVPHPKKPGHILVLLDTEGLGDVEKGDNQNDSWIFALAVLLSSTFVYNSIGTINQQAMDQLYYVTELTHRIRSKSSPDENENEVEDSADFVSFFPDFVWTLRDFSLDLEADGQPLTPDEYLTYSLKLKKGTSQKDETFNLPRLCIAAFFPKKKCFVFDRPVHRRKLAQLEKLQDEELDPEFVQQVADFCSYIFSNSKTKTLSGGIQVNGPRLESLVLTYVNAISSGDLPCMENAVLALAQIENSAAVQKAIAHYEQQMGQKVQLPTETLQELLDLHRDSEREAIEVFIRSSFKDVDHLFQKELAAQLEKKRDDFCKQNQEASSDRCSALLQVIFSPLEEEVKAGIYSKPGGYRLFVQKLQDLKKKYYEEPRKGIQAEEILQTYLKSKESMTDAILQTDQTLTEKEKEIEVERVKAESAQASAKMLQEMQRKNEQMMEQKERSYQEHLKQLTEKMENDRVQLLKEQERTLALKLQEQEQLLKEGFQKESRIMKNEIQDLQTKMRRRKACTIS

GBP1 mutant R227E/K228E = biological target: T2, GBP1 mutant R227E/K228E (human, UniProt P32455 1-592, R227E | K228E)
T2 sequence (looked up): T1 sequence (looked up) with A227E, A228E

GBP1 mutant R48A = biological target: T3, GBP1 mutant R48A (human, UniProt P32455 1-592, R48A)
T3 sequence (looked up): T1 sequence (looked up) with R48A, A227R, A228K

GBP1 mutant D103N = biological target: T4, GBP1 mutant D103N (human, UniProt P32455 1-592, D103N)
T4 sequence (looked up): T1 sequence (looked up) with D103N, A227R, A228K

Kd (GBP1 mutant R227A/K228A): 137 ± 14 nM
Kd (GBP1 mutant R227E/K228E): > 10000 nM
Kd (GBP1 mutant R48A): 290 ± 21 nM
Kd (GBP1 mutant D103N): 21 ± 1 nM
B1: PIM1 (recombinant) (enzyme)
chain: not shown
